Series [1] addresses T1, p73β (UniProt O15350-2 1-499).
T1 sequence: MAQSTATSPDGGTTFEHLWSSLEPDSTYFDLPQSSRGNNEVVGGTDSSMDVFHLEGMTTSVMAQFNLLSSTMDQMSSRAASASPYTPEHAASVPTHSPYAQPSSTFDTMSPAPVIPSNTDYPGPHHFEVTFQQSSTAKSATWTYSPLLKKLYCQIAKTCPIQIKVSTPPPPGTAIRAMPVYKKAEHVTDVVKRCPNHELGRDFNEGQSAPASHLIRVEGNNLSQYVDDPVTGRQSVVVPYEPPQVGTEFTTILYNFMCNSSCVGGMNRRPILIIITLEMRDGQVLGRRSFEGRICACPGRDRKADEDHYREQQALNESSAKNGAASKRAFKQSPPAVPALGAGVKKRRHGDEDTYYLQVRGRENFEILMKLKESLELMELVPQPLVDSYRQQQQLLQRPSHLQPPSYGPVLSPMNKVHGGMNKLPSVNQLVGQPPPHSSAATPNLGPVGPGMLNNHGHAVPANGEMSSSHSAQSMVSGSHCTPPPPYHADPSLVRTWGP
The series can be described thus: EMSA. A general note: Mobility shift assays separate free from complexed probe on a gel.

The target of series [2] is T2, p53 (UniProt P04637 1-393). Description: EMSA.
T2 sequence (P04637 whole entry): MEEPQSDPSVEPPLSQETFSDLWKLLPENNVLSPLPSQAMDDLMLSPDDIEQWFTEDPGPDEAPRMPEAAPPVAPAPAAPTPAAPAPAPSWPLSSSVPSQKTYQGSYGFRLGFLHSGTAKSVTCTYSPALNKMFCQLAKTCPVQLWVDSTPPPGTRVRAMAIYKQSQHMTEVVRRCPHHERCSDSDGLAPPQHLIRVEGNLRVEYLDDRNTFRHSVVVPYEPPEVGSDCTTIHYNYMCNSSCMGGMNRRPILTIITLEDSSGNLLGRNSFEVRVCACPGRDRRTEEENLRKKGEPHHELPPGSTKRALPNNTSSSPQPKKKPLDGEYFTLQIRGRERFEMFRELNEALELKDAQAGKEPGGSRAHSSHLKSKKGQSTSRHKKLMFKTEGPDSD
In series [3] the target is T1, p73β. Description: EMSA. The source holds these as a separate data set.
The next series has as its target T3, p73β(C262S) (UniProt O15350-2 1-499, C262S).
T3 sequence: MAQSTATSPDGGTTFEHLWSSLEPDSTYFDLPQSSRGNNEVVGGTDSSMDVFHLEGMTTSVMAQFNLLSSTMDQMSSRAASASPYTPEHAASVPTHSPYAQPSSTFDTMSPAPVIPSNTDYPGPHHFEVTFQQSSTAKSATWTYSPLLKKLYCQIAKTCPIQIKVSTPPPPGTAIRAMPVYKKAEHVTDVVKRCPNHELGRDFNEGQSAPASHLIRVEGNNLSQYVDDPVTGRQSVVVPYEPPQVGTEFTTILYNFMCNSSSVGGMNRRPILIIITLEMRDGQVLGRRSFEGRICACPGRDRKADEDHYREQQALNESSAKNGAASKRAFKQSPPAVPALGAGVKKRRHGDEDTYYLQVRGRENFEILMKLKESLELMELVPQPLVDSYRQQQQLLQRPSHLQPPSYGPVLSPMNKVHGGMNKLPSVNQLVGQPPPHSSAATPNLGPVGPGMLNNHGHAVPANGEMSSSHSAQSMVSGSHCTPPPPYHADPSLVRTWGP
The series can be described thus: DNA immunobinding assay.

Series [4] concerns the target T1, p73β. Description: EMSA. The source holds these as a separate data set.
The target of a further series is T4, ΔNp63β (UniProt Q9H3D4-4 1-461).
T4 sequence: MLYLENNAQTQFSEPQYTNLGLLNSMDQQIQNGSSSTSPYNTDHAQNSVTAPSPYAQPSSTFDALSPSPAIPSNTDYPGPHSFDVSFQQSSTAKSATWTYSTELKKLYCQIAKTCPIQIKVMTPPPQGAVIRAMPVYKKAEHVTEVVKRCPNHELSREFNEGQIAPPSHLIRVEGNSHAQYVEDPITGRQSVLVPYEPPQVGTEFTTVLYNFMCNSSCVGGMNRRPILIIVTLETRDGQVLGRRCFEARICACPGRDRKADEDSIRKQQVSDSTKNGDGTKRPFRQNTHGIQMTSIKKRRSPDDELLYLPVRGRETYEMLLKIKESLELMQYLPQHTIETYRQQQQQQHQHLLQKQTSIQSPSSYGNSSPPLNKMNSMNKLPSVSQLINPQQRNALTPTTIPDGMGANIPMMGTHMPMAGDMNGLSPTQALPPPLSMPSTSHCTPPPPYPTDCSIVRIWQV
The series can be described thus: EMSA.

For another series, the target named is T5, p73α (UniProt O15350 1-636).
T5 sequence: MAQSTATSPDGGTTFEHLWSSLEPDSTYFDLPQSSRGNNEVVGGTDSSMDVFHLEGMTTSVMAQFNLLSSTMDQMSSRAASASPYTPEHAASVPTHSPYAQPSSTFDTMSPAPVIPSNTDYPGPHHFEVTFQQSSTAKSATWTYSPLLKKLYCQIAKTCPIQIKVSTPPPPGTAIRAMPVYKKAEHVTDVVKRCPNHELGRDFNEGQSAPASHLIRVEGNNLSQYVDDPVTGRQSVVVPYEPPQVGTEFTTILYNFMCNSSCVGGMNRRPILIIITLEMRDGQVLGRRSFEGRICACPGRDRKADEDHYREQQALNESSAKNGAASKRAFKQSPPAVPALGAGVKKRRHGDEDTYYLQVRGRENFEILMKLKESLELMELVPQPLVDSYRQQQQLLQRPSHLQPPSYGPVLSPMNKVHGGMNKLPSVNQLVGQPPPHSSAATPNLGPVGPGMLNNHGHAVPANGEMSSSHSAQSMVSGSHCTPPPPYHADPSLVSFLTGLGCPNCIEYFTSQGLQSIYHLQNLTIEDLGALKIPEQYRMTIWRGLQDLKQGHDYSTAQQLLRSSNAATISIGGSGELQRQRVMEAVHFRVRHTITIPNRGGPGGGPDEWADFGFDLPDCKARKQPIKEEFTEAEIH
The series can be described thus: EMSA.

Series [5] concerns the target T2, p53. Description: EMSA. This is another data set of the same source.
Series [6] deals with T1, p73β. The series can be described thus: EMSA. The source holds these as a separate data set.

Read-outs that look alike come from different tables or passages of the source.

The results in this text go back to publication PMC1802567.

B1: PUMA (dsDNA)
DNA 1: AGCTAGTAGAGCCTGCAAGTCCTGACTTGTCCGCGTGCTGCAGC
DNA 2: GCTGCAGCACGCGGACAAGTCAGGACTTGCAGGCTCTACTAGCT
In the case of B1, the binding result with p73β [1] is “binds”.

B2: PIG3 (dsDNA)
DNA 1: AGCTAGTAGAGCCAGCTTGCCCACCCATGCTCGCGTGCTGCAGC
DNA 2: GCTGCAGCACGCGAGCATGGGTGGGCAAGCTGGCTCTACTAGCT
Consider B2, for which the binding result with p53 [2] and in the series with p73β [3] was “binds” throughout.

B3: p21 5' site (dsDNA)
DNA 1: AGCTAGTAGAGCGAACATGTCCCAACATGTTGGCGTGCTGCAGC
DNA 2: GCTGCAGCACGCCAACATGTTGGGACATGTTCGCTCTACTAGCT
B3: the binding result with p53 [2], with p73β [4], with ΔNp63β and in the series with p73α was “binds” in each case. This molecule also yielded a binding signal with p73β(C262S) of 1.5 fold over background.

B4: PPC (dsDNA)
DNA 1: AGCTAGTAGAGCTGGCATGTCCCGACTTGTTAGCGTGCTGCAGC
DNA 2: GCTGCAGCACGCTAACAAGTCGGGACATGCCAGCTCTACTAGCT
Turning to B4, the binding result in the series with p53 [5] and with p73β [6] was “binds” each time.
